Test results published in patent publication US11542488B2, “Sortase synthesized chimeric antigen receptors” (Novartis AG, priority 2014, dated 2023).

System: scFV directed to CD19 harboring a LPXTG sortase-recognition motif (scFV19)
Assay: Sortase-mediated labeling of scFV19 with GGGK(TAMRA) peptide, reducing SDS-PAGE and fluorescent scanning
Format: biochemical
Details: for calcium requirement for labeling of scFV19 with TAMRA peptide: absence or presence of 10 mM calcium
From the text: Characterization of the enzyme was initially done in vitro using purified proteins. As the reaction substrate, a scFV directed to CD19 (scFV19) comprising a sortase A recognition motif (LPETGG, SEQ ID NO: 21) and a His8 (SEQ ID NO: 111) purification handle at the C-terminus (also referred to herein as scFv19.LPETGG.His8 (“LPETGG” and “His8” disclosed as SEQ ID NOS 21 and 111, respectively)) was cloned, expressed, and purified. This is the same scFV19 that was used in subsequent examples to test site-specific attachment to live cells using sortase:
As a nucleophile for these test reactions fluorescently labeled peptide: GGGK(TAMRA) (KRUEGANA-001-EXP022) (SEQ ID NO:23) was synthesized and purified. The fluorophore moiety allowed for convenient monitoring of the reaction by SDS-PAGE followed by fluorescent scanning.
The activities of mutant and wild-type (SrtA aureus_His6SrtA26-206 (“His6” disclosed as SEQ ID NO: 110)) sortases were compared side-by-side in the absence or presence of 10 mM calcium in 50 mM Tris-Cl, pH 7.4, 150 mM NaCl buffer, using final concentrations of 40 μM sortase, 20 μM scFV.LPETG.His8 (“LPETG” and “His8” disclosed as SEQ ID NOS 112 and 111, respectively), and 1 mM GGGK(TAMRA) (SEQ ID NO:23). The reactions were incubated at 37° for different periods of time (as indicated in FIG. 2), and analyzed by reducing SDS-PAGE followed by fluorescent scanning (using a ChemiDoc gel imaging system from BioRad) and coomassie staining.
The activity of mutant sortase A was active in culture media (RMPI supplemented with 1% FBS) was determined using the same reaction conditions as in Example 2. The presence of the fluorescent bands indicates the successful coupling of scFv19 to the TAMRA-labeled peptide in the presence of cell culture media. […] As in Example 2, the reaction was complete upon 45′ incubation at 37° C. (FIG. 3). […]

[1] = 40 μM sortase, 20 μM scFV, 1 mM GGGK(TAMRA), 37°

Chain of scFV directed to CD19 harboring a LPXTG sortase-recognition motif (scFV19) (as listed by the source): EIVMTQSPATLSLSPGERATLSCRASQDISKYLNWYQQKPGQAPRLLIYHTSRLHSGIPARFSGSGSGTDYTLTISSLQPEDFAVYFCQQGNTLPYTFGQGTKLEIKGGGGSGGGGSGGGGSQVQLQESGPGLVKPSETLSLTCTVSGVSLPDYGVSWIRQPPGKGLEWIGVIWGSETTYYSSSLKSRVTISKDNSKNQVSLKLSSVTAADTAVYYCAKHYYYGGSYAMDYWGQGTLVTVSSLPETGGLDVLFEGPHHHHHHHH

B1: mutant sortase A: S. aureus Sortase A mutant lacking the N-terminal 59 amino acids, calcium independent and faster (SEQ ID NO: 4) (protein)
chain: MQAKPQIPKDKSKVAGYIEIPDADIKEPVYPGPATREQLNRGVSFAKENQSLDDQNISIAGHTFIDRPNYQFTNLKAAKKGSMVYFKVGNETRKYKMTSIRNVKPTAVEVLDEQKGKDKQLTLITCDDYNEETGVWETRKIFVATEVKLEHHHHHH
incubation time at which fluorescence was demonstrated [1]: ≤ 15 min
time to same labeling proportion with three-fold higher enzyme concentration (120 μM versus 40 μM sortase): half of the time
incubation time for complete labeling of scFV19 with TAMRA peptide (50 mM Tris-Cl, pH 7.4, 150 mM NaCl buffer, 37° C.): 45 ′
reaction speed compared with wild-type sortase (37°): faster
specificity: serum proteins labeled with fluorophore (RPMI + 1% FBS): no proteins from the serum
activity in culture media (RPMI supplemented with 1% FBS): active
calcium requirement for labeling of scFV19 with TAMRA peptide [1]: regardless of whether calcium was present
fluorescence compared to reactions containing wild-type sortase (all three timepoints): Increased fluorescence
incubation time for complete reaction (culture media (RPMI + 1% FBS), 37° C.): 45 ′
labeling differences between reactions in buffer or in culture media (reaction kinetics and fluorescence intensity): No major labeling differences

B2: wild-type sortase: wild-type S. aureus sortase A (His6SrtA26-206) (protein, UniProt Q2FV99 26-206, looked up, fragment)
chain: KPHIDNYLHDKDKDEKIEQYDKNVKEQASKDKKQQAKPQIPKDKSKVAGYIEIPDADIKEPVYPGPATPEQLNRGVSFAEENESLDDQNISIAGHTFIDRPNYQFTNLKAAKKGSMVYFKVGNETRKYKMTSIRDVKPTDVGVLDEQKGKDKQLTLITCDDYNEKTGVWEKRKIFVATEVK
modifications: His6 tag
fluorescence at 15 minutes of incubation [1]: no fluorescence was detected
calcium requirement for labeling of scFV19 with TAMRA peptide [1]: essential
